# Test results published in patent US20220152100A1, “METHODS FOR CONTROLLED ACTIVATION OR ELIMINATION OF THERAPEUTIC CELLS” (Bellicum Pharmaceuticals, Inc., priority 2014, published 2022).
# System: HEK293T/16 cells
# Test: SEAP-based surrogate killing assay of iCasp9 mutants
# Format: cell-based, human
# Details: in words, versus wild type
# Experimental: Early passage HEK293T/16 cells (ATCC, Manassas, Va.) were maintained in IMDM, GlutaMAX™ (Life Technologies, Carlsbad, Calif.) supplemented with 10% FBS, 100 U/mL penicillin, and 100 […] until transfection in a humidified, 37° C., 5% CO2/95% air atmosphere. Cells in logarithmic-phase growth were transiently transfected with 800 ng to 2 μg of expression plasmid encoding iCasp9 mutants and 500 ng of an expression plasmid encoding SRα promoter driven SEAP per million cells in 15-mL conical tubes. […] GeneJammer® Transfection Reagent at a ratio of 3 μl per ug of plasmid DNA was used to transiently transfect HEK293T/16 cells in the absence of antibiotics. 100 μl or 2 mL of the transfection mixture was added to each well in 96-well or 6-well plate, respectively.
# Briefly, after 65° C. heat denaturation for 45 minutes to reduce background caused by endogenous (and serum-derived) alkaline phosphatases that are sensitive to heat, 5 μl of supernatants was added to 95 μl of PBS and added to 100 μl of substrate buffer, containing 1 μl of 100 mM 4-methylumbelliferyl phosphate (4-MUP; Sigma, St. Louis, Mo.) re-suspended in 2 M diethanolamine. Hydrolysis of 4-MUP by SEAP produces a fluorescent […] with excitation/emission (355/460 nm), which can be easily measured. Assays were performed in black opaque 96-well plates to minimize fluorescence leakage between wells. […] of the mixture was seeded onto each well of a 96-well plate. […] For the assay, 4-methylumbelliferyl phosphate substrate was hydrolyzed by SEAP to 4-methylumbelliferon, a metabolite that can be excited with 364 nm and detected with an emission filter of 448 nm. Since SEAP is used as a marker for cell viability, reduced SEAP reading corresponds with increased iCaspase-9 activities.
row,Molecule,effect on basal / catalytic activity
1,"^316ATPF^319AVPI: Caspase-9 with XIAP-binding tetrapeptide ATPF replaced by AVPI from SMAC/DIABLO (protein, UniProt P55211 1-416, looked up, variant T317V F319I, ATPF replaced by SMAC AVPI motif) MDEADRRLLRRCRLRLVEELQVDQLWDALLSRELFRPHMIEDIQRAGSGSRRDQARQLIIDLETRGSQALPLFISCLEDTGQDMLASFLRTNRQAAKLSKPTLENLTPVVLRPEIRKPEVLRPETPRPVDIGSGGFGDVGALESLRGNADLAYILSMEPCGHCLIINNVNFCRESGLRTRTGSNIDCEKLRRRFSSLHFMVEVKGDLTAKKMVLALLELAQQDHGALDCCVVVILSHGCQASHLQFPGAVYGTDGCPVSVEKIVNIFNGTSCPSLGGKPKLFFIQACGGEQKDHGFEVASTSPEDESPGSNPEPDAVPIQEGLRTFDQLDAISSLPTPSDIFVSYSTFPGFVSWRDPKSGSWYVETLDDIFEQWAHSEDLQSLLLRVANAVSVKGIYKQMPGCFNFLRKKLFFKTS",no effect
2,D327G: chimeric modified Caspase-9 polypeptide (protein) VDGFGDVGALESLRGNADLAYILSMEPCGHCLIINNVNFCRESGLRTRTGSNIDCEKLRRRFSSLHFMVEVKGDLTAKKMVLALLELARQDHGALDCCVVVILSHGCQASHLQFPGAVYGTDGCPVSVEKIVNIFNGTSCPSLGGKPKLFFIQACGGEQKDHGFEVASTSPEDESPGSNPEPDATPFQEGLRTFGQLDAISSLPTPSDIFVSYSTFPGFVSWRDPKSGSWYVETLDDIFEQWAHSEDLQSLLLRVANAVSVKGIYKQMPGCFNFLRKKLFFKTSASRA,did not lower basal activity
3,D327R: chimeric modified Caspase-9 polypeptide (protein) VDGFGDVGALESLRGNADLAYILSMEPCGHCLIINNVNFCRESGLRTRTGSNIDCEKLRRRFSSLHFMVEVKGDLTAKKMVLALLELARQDHGALDCCVVVILSHGCQASHLQFPGAVYGTDGCPVSVEKIVNIFNGTSCPSLGGKPKLFFIQACGGEQKDHGFEVASTSPEDESPGSNPEPDATPFQEGLRTFRQLDAISSLPTPSDIFVSYSTFPGFVSWRDPKSGSWYVETLDDIFEQWAHSEDLQSLLLRVANAVSVKGIYKQMPGCFNFLRKKLFFKTSASRA,did not lower basal activity
4,L329K: chimeric modified Caspase-9 polypeptide (protein) VDGFGDVGALESLRGNADLAYILSMEPCGHCLIINNVNFCRESGLRTRTGSNIDCEKLRRRFSSLHFMVEVKGDLTAKKMVLALLELARQDHGALDCCVVVILSHGCQASHLQFPGAVYGTDGCPVSVEKIVNIFNGTSCPSLGGKPKLFFIQACGGEQKDHGFEVASTSPEDESPGSNPEPDATPFQEGLRTFDQKDAISSLPTPSDIFVSYSTFPGFVSWRDPKSGSWYVETLDDIFEQWAHSEDLQSLLLRVANAVSVKGIYKQMPGCFNFLRKKLFFKTSASRA,did not lower basal activity
5,D327K: chimeric modified Caspase-9 polypeptide (protein) VDGFGDVGALESLRGNADLAYILSMEPCGHCLIINNVNFCRESGLRTRTGSNIDCEKLRRRFSSLHFMVEVKGDLTAKKMVLALLELARQDHGALDCCVVVILSHGCQASHLQFPGAVYGTDGCPVSVEKIVNIFNGTSCPSLGGKPKLFFIQACGGEQKDHGFEVASTSPEDESPGSNPEPDATPFQEGLRTFKQLDAISSLPTPSDIFVSYSTFPGFVSWRDPKSGSWYVETLDDIFEQWAHSEDLQSLLLRVANAVSVKGIYKQMPGCFNFLRKKLFFKTSASRA,did not lower basal activity
6,Q328R: chimeric modified Caspase-9 polypeptide (protein) VDGFGDVGALESLRGNADLAYILSMEPCGHCLIINNVNFCRESGLRTRTGSNIDCEKLRRRFSSLHFMVEVKGDLTAKKMVLALLELARQDHGALDCCVVVILSHGCQASHLQFPGAVYGTDGCPVSVEKIVNIFNGTSCPSLGGKPKLFFIQACGGEQKDHGFEVASTSPEDESPGSNPEPDATPFQEGLRTFDRLDAISSLPTPSDIFVSYSTFPGFVSWRDPKSGSWYVETLDDIFEQWAHSEDLQSLLLRVANAVSVKGIYKQMPGCFNFLRKKLFFKTSASRA,did not lower basal activity
7,L329G: chimeric modified Caspase-9 polypeptide (protein) VDGFGDVGALESLRGNADLAYILSMEPCGHCLIINNVNFCRESGLRTRTGSNIDCEKLRRRFSSLHFMVEVKGDLTAKKMVLALLELARQDHGALDCCVVVILSHGCQASHLQFPGAVYGTDGCPVSVEKIVNIFNGTSCPSLGGKPKLFFIQACGGEQKDHGFEVASTSPEDESPGSNPEPDATPFQEGLRTFDQGDAISSLPTPSDIFVSYSTFPGFVSWRDPKSGSWYVETLDDIFEQWAHSEDLQSLLLRVANAVSVKGIYKQMPGCFNFLRKKLFFKTSASRA,did not lower basal activity
8,F326K: chimeric modified Caspase-9 polypeptide (protein) VDGFGDVGALESLRGNADLAYILSMEPCGHCLIINNVNFCRESGLRTRTGSNIDCEKLRRRFSSLHFMVEVKGDLTAKKMVLALLELARQDHGALDCCVVVILSHGCQASHLQFPGAVYGTDGCPVSVEKIVNIFNGTSCPSLGGKPKLFFIQACGGEQKDHGFEVASTSPEDESPGSNPEPDATPFQEGLRTKDQLDAISSLPTPSDIFVSYSTFPGFVSWRDPKSGSWYVETLDDIFEQWAHSEDLQSLLLRVANAVSVKGIYKQMPGCFNFLRKKLFFKTSASRA,did not lower basal activity
9,A331K: chimeric modified Caspase-9 polypeptide (protein) VDGFGDVGALESLRGNADLAYILSMEPCGHCLIINNVNFCRESGLRTRTGSNIDCEKLRRRFSSLHFMVEVKGDLTAKKMVLALLELARQDHGALDCCVVVILSHGCQASHLQFPGAVYGTDGCPVSVEKIVNIFNGTSCPSLGGKPKLFFIQACGGEQKDHGFEVASTSPEDESPGSNPEPDATPFQEGLRTFDQLDKISSLPTPSDIFVSYSTFPGFVSWRDPKSGSWYVETLDDIFEQWAHSEDLQSLLLRVANAVSVKGIYKQMPGCFNFLRKKLFFKTSASRA,did not lower basal activity
10,Q328K: chimeric modified Caspase-9 polypeptide (protein) VDGFGDVGALESLRGNADLAYILSMEPCGHCLIINNVNFCRESGLRTRTGSNIDCEKLRRRFSSLHFMVEVKGDLTAKKMVLALLELARQDHGALDCCVVVILSHGCQASHLQFPGAVYGTDGCPVSVEKIVNIFNGTSCPSLGGKPKLFFIQACGGEQKDHGFEVASTSPEDESPGSNPEPDATPFQEGLRTFDKLDAISSLPTPSDIFVSYSTFPGFVSWRDPKSGSWYVETLDDIFEQWAHSEDLQSLLLRVANAVSVKGIYKQMPGCFNFLRKKLFFKTSASRA,did not lower basal activity
